Sequences and labels used below:
B1: Bicycle Compound Number 130 (TBMB scaffold) (peptide)
peptide: [Sar][Sar]ACP[1Nal]GPFWCP[Tle]N[hArg]PGC
modifications: linker 4-11-18 via TBMB
notes: also called Compound 130; Sar2-ACP(1Nal)GPFWCP(tBuGly)N(HArg)PGC
B2: Bicycle Compound Number 118 (TBMB scaffold) (peptide)
peptide: [Sar][Sar]ACPWGPF[1Nal]CPVNRP[dA]C
modifications: linker 4-11-18 via TBMB
notes: also called Sar2-ACPWGPF(1Nal)CPVNRP(D-Ala)C
B3: Bicycle Compound Number 124 (TBMB scaffold) (peptide)
peptide: [Sar][Sar]AC[Aib][1Nal]GPFWCPV[dA]RPGC
modifications: linker 4-11-18 via TBMB
notes: also called Sar2-AC(Aib)(1Nal)GPFWCPV(D-Ala)RPGC

Starred links: 1 amine or outer side, 2 acyl side, 3 side chain; linkers in the order of their positions; H or OH if unused. Positions of bridges follow the written chain, without caps; N, C: chain ends. Non-standard residues stand in square brackets, D forms with d. Primed or numbered codes have the meaning given here. No end group written: not given here. TBMB′ = 1,3,5-tris(bromomethyl)benzene, 1,3,5-tris(methylene)benzene core, three thioethers to Cys; 4FlPro = 4-fluoropyrrolidine-2-carboxylic acid (4-fluoroproline); TATA = O=C(CC[*:1])N1CN(C(=O)CC[*:2])CN(C(=O)CC[*:3])C1; Phe(3,4-Cl2) = N[C@@H](Cc1ccc(Cl)c(Cl)c1)C(=O)O; Bip = N[C@@H](Cc1ccc(-c2ccccc2)cc1)C(=O)O; Phe(4-Br) = N[C@@H](Cc1ccc(Br)cc1)C(=O)O; 1Nal = N[C@@H](Cc1cccc2ccccc12)C(=O)O; 2Nal = N[C@@H](Cc1ccc2ccccc2c1)C(=O)O; TBMB = c1c(C[*:1])cc(C[*:3])cc1C[*:2]; Hyp = O=C(O)[C@@H]1C[C@@H](O)CN1; hArg = N=C(N)NCCCC[C@H](N)C(=O)O; hPhe = N[C@@H](CCc1ccccc1)C(=O)O; 3Pal = N[C@@H](Cc1cccnc1)C(=O)O; Phg = N[C@H](C(=O)O)c1ccccc1; Tle = CC(C)(C)[C@H](N)C(=O)O; Pip = O=C(O)[C@@H]1CCCCN1; Aze = O=C(O)[C@@H]1CCN1; Aib = CC(C)(N)C(=O)O; Sar = CNCC(=O)O

The target in one assay is T1, Human EphA2 (Ecto), C-terminal polyHis (Human, UniProt P29317 24-537).
T1 construct: extracellular domain; also called EPH receptor A2; ephrin type-A receptor 2
T1 sequence (P29317 24-537): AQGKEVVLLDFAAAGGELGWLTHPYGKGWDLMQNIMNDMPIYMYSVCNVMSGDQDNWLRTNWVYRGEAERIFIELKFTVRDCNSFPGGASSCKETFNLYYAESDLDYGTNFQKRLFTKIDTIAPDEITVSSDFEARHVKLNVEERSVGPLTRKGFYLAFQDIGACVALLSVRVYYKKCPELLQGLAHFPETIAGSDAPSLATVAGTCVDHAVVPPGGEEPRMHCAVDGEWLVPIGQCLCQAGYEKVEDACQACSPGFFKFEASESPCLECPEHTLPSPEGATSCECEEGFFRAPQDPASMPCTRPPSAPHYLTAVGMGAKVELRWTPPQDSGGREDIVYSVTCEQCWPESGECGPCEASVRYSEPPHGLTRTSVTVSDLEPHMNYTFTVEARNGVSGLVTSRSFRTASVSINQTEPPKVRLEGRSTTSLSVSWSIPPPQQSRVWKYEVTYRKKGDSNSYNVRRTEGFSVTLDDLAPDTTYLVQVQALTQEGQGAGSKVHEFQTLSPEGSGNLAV
Kind of assay: fluorescence polarisation competition; competitor fluorescent Compound 66. As for the experimental part: (§1) Peptides without a fluorescent tag were tested in competition with a peptide with a fluorescent tag and a known Kd (Table 2). Peptides were diluted to an appropriate concentration in assay buffer as described in the direct binding assay with a maximum of 5% DMSO, then serially diluted 1 in 2. […] Measurements were conducted as for the direct binding assay, however the gain was determined prior to the first measurement. Data analysis was in Systat Sigmaplot version 12.0 where the mP values were fit to a user defined cubic equation to generate a Ki value: […]
(In general: In fluorescence polarisation assays a small probe gives low polarisation when free and higher when bound to something large.)
ACPWGPMWCPVNRPGCA (linker 2-9-16 via TBMB (inferred), also called Compound 46) [Bicycle Compound Number 46 (TBMB scaffold)]: the Ki (in general, the equilibrium dissociation constant of an inhibitor or competing ligand from its target) was determined as 95.8 nM. This lies in the double-digit nanomolar range.

For ACPWGPFWCPVNRPGCA (linker 2-9-16 via TBMB, also called Compound 69) [Bicycle Compound Number 69 (TBMB scaffold)], the affinity corresponds to a Ki of 70.1 nM. The Ki values of the last two molecules are within 1.5-fold of each other.

Consider ACPWGPAWCPVRDTNCA (linker 2-9-16 via TBMB, also called Compound 42) [Bicycle Compound Number 42 (TBMB scaffold)], for which the affinity, expressed as Ki, was 316 nM.

For [Sar][Sar]ACPWGPFWC[4FlPro]VNRPGC (linker 4-11-18 via TBMB, also called Compound 99) [Bicycle Compound Number 99 (TBMB scaffold)], the inhibition constant Ki was 270 nM. This Ki and that of the molecule before are within 1.5-fold of each other.

For the molecule [Sar][Sar]ACPWGP[2Nal]WCPVNRPGC (linker 4-11-18 via TBMB′, also called Compound 95) [Bicycle Compound Number 95 (TBMB scaffold)], the Ki is 362 nM.

As for [Sar][Sar]ACPWGP[Phg]WCPVNRPGC (linker 4-11-18 via TBMB′, also called Compound 93) [Bicycle Compound Number 93 (TBMB scaffold)], the Ki came out at 412 nM.

Molecule [Sar][Sar]ACPWGPFWCPVNR[Aze]GC (linker 4-11-18 via TBMB) [Bicycle Compound Number 106 (TBMB scaffold)] gave a Ki of 155 nM.

In turn, [Sar][Sar]ACPWGPFWC[Hyp]VNRPGC (linker 4-11-18 via TBMB′, also called Compound 98) [Bicycle Compound Number 98 (TBMB scaffold)] gave a Ki of 163 nM.

In the case of [Sar][Sar]ACPWG[Aib]FWCPVNRPGC (linker 4-11-18 via TBMB′, also called Compound 80) [Bicycle Compound Number 80 (TBMB scaffold)], the affinity corresponds to a Ki of 187 nM.

In the case of [Sar][Sar]ACP[2Nal]GPFWCPVNRPGC (linker 4-11-18 via TBMB, also called Compound 77) [Bicycle Compound Number 77 (TBMB scaffold)], the Ki was found to be 458 nM.

In turn, [Sar][Sar]ACPWGPFWCPVNR[4FlPro]GC (linker 4-11-18 via TBMB) [Bicycle Compound Number 109 (TBMB scaffold)] had a Ki of 184 nM.

For [Sar][Sar]ACPWGP[Phe(3,4-Cl2)]WCPVNRPGC (linker 4-11-18 via TBMB′, also called Compound 90) [Bicycle Compound Number 90 (TBMB scaffold)], the Ki was determined as 361 nM.

As to ACMNDWLCQLGWTCA (linker 2-8-14 via TBMB, also called Compound 30) [Bicycle Compound Number 30 (TBMB scaffold)], the affinity, expressed as Ki, was 56 nM.

Molecule ACMNDWLCSLGWTCA (linker 2-8-14 via TBMB, also called Compound 24) [Bicycle Compound Number 24 (TBMB scaffold)] displayed a Ki of 82.3 nM.

In turn, [Sar][Sar]ACPWGP[Phe(4-Br)]WCPVNRPGC (linker 4-11-18 via TBMB′, also called Compound 85) [Bicycle Compound Number 85 (TBMB scaffold)] showed a Ki of 174 nM.

For the molecule [Sar][Sar]AC[Aib]WGPF[1Nal]CPVNRPGC (linker 4-11-18 via TBMB) [Bicycle Compound Number 114 (TBMB scaffold)], the Ki stood at 43 nM. This Ki is about 4-fold lower than that of the molecule before.

[Sar][Sar]AC[Aib]WGPFWCPVNRPGC (linker 4-11-18 via TBMB, also called Compound 74) [Bicycle Compound Number 74 (TBMB scaffold)] registered a Ki of 139 nM.

ACRVSPEYCPFGPVWCA (linker 2-9-16 via TBMB, also called Compound 33) [Bicycle Compound Number 33 (TBMB scaffold)]: the inhibitory constant (Ki) was found to be 78.5 nM.

ACRVSPEYCPFGPSWCA (linker 2-9-16 via TBMB, also called Compound 36) [Bicycle Compound Number 36 (TBMB scaffold)] showed a Ki of 40.5 nM.

Regarding ACRVSPEYCPFGPEWCA (linker 2-9-16 via TBMB, also called Compound 37) [Bicycle Compound Number 37 (TBMB scaffold)], the Ki was determined as 61.2 nM.

The molecule ACRVSPEYCPFGPYWCA (linker 2-9-16 via TBMB, also called Compound 38) [Bicycle Compound Number 38 (TBMB scaffold)] returned a Ki of 26.5 nM.

Take [Sar][Sar]ACPWGPFWCPVNR[Pip]GC (linker 4-11-18 via TBMB) [Bicycle Compound Number 108 (TBMB scaffold)]: the Ki stood at 374 nM.

In turn, [Sar][Sar]ACP[1Nal]G[Aib]FWCPVNRPGC (linker 4-11-18 via TBMB) [Bicycle Compound Number 119 (TBMB scaffold)] returned a Ki of 8.4 nM.

As for ARDDPCPWGPFWCPVNRPGCA (linker 6-13-20 via TBMB (inferred), also called Compound 62) [Bicycle Compound Number 62 (TBMB scaffold)], the Ki came out at 28 nM.

In turn, [Sar][Sar]ACP[1Nal]G[Aib]FWCP[Tle]N[hArg]PGC (linker 4-11-18 via TBMB) [Bicycle Compound Number 136 (TBMB scaffold)] yielded a Ki of 15 nM.

With [Sar][Sar]ACPWGPYWCPVNRPGC (linker 4-11-18 via TBMB′, also called Compound 91) [Bicycle Compound Number 91 (TBMB scaffold)], affinity was put at a Ki of 138 nM.

The molecule [Sar][Sar]ACPWGPFWCPVARPGC (linker 4-11-18 via TBMB) [Bicycle Compound Number 101 (TBMB scaffold)] gave a Ki of 265 nM.

[Sar][Sar]ACPWGPFWCPVNR[dA]GC (linker 4-11-18 via TBMB) [Bicycle Compound Number 105 (TBMB scaffold)] registered an inhibition constant Ki of 471 nM.

[Sar][Sar]ACPWG[Pip]FWCPVNRPGC (linker 4-11-18 via TBMB′, also called Compound 82) [Bicycle Compound Number 82 (TBMB scaffold)] returned a Ki of 497 nM.

Take [Sar][Sar]ACPWGPFWC[Aze]VNRPGC (linker 4-11-18 via TBMB′, also called Compound 97) [Bicycle Compound Number 97 (TBMB scaffold)]: the affinity corresponds to a Ki of 286 nM.

[Sar][Sar]AC[Aib][1Nal]G[Aib]FWCPVNR[Aib]GC (linker 4-11-18 via TBMB) [Bicycle Compound Number 135 (TBMB scaffold)] gave a Ki of 30 nM.

With [Sar][Sar]ACPWGP[Bip]WCPVNRPGC (linker 4-11-18 via TBMB′, also called Compound 88) [Bicycle Compound Number 88 (TBMB scaffold)], the Ki turned out to be 183 nM. Against the preceding molecule, the Ki is about 6.1-fold higher.

[Sar][Sar]ACPWGP[3Pal]WCPVNRPGC (linker 4-11-18 via TBMB′, also called Compound 92) [Bicycle Compound Number 92 (TBMB scaffold)] returned a Ki of 165 nM. This Ki and that of the molecule before are within 1.5-fold of each other.

As for [Sar][Sar]ACPWGP[1Nal]WCPVNRPGC (linker 4-11-18 via TBMB′, also called Compound 94) [Bicycle Compound Number 94 (TBMB scaffold)], the Ki is 196 nM.

The molecule ACRVSPEYCPFGPVWCAGAAA (linker 2-9-16 via TBMB, also called Compound 34) [Bicycle Compound Number 34 (TBMB scaffold)] displayed a Ki of 77.4 nM.

The target of another assay is T2, Human EphA2 (Ecto) (Human, UniProt P29317 24-537).
T2 construct: extracellular domain; in-house)
T2 sequence (P29317 24-537): as the sequence (P29317 24-537) above
Put plainly: FP competition; tracer Reference Compound C. Here is the method:
as §1
Take ACPLVNPLCLHPG[2Nal]SCRGQ (linker 2-9-16 via TATA) [Bicycle Compound Number 93 (TATA scaffold), ACPLVNPLCLHPG(2Nal)SCRGQ]: the affinity, expressed as Ki, was 228 nM.

On to Ac-CPLVNPLCLHPGWSCRGQ (linker 1-8-15 via TATA) [Bicycle Compound Number 88 (TATA scaffold), Ac-CPLVNPLCLHPGWSCRGQ], for which the affinity corresponds to a Ki of 1.64 nM.

ACPLVNPLCLTPGWTCTNT (linker 2-9-16 via TATA) [Bicycle Compound Number 94 (TATA scaffold), ACPLVNPLCLTPGWTCTNT] registered a Ki of 13.2 nM.

ACPLVNPLCLEPGWTCAKR (linker 2-9-16 via TATA) [Bicycle Compound Number 85 (TATA scaffold), ACPLVNPLCLEPGWTCAKR] returned a Ki of 10.9 nM.

The next assay concerns the target T1, Human EphA2 (Ecto), C-terminal polyHis. Kind of assay: fluorescence polarisation competition; competitor fluorescent Compound 18. Here is the method: as §1
[Sar][Sar]ACPWGP[hPhe]WCPVNRPGC (linker 4-11-18 via TBMB′, also called Compound 87) [Bicycle Compound Number 87 (TBMB scaffold)] yielded a Ki of 162 nM.

As for B1, the inhibition constant (Ki) came out at 0.29 nM.

In turn, ACPWGPFWCPVNRPGCA (linker 2-9-16 via TBMB, also called Compound 69) [Bicycle Compound Number 69 (TBMB scaffold)] returned a Ki of 107 nM. This Ki lies about 370-fold higher than the previous one.

B2 returned a Ki of 37 nM.

Regarding [Sar][Sar]ACPWG[Aib]FWCPVNRPGC (linker 4-11-18 via TBMB′, also called Compound 80) [Bicycle Compound Number 80 (TBMB scaffold)], the Ki stood at 120 nM.

Molecule AHDVPCPWGPFWCPVNRPGCA (linker 6-13-20 via TBMB (inferred), also called Compound 59) [Bicycle Compound Number 59 (TBMB scaffold)] displayed an inhibition constant Ki of 0.54 nM.

Consider [Sar][Sar]ACP[1Nal]G[Aib]FWCP[Tle]N[hArg]PGC (linker 4-11-18 via TBMB) [Bicycle Compound Number 136 (TBMB scaffold)], for which the Ki was 23 nM.

With [Sar][Sar]ACPWGPFWCPVNRP[dA]C (linker 4-11-18 via TBMB) [Bicycle Compound Number 112 (TBMB scaffold)], the affinity corresponds to a Ki of 89 nM.

On to [Sar][Sar]AC[Aib][1Nal]G[Aib]FWCPVNR[Aib]GC (linker 4-11-18 via TBMB) [Bicycle Compound Number 135 (TBMB scaffold)], for which the Ki came to 43 nM.

Molecule B3 registered a Ki of 26 nM.

[Sar][Sar]ACP[1Nal]GPFWCP[Tle]N[hArg][Aib]GC (linker 4-11-18 via TBMB) [Bicycle Compound Number 138 (TBMB scaffold)] registered a Ki of 5.1 nM.
